The data set can be described thus: protein stability index of a GFP-peptide fusion (GPS, HEK-293T) (PSI 1-6); higher = more stable. The note with it: c terminus: a fixed tail appended.

± gives the standard deviation.
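Also: 24-mer peptide tiles fused after GFP, lentivirally expressed, FACS-sorted into six equal bins by GFP/DsRed ratio, decoded by Illumina sequencing, PSI is the read-weighted mean bin number.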

CSSSDDDTDVDMEGLRRRRGREAG [PBXIP1]: the protein stability index is 5.3 ± 0.28 (treatment: DMSO) and 5.26 ± 0.21 (treatment: MLN4924 1 uM, 8 h).
CVPAHPPPCAWACPVPAHRRGSWR [CTBP1-DT]: the protein stability index is, setting by setting: (treatment: DMSO) 2.56 ± 0.19; (treatment: MLN4924 1 uM, 8 h) 2.77 ± 0.18.
For the sequence CVQCGKSYSQSSNLFRHQRRHNAE [ZNF24], the protein stability index worked out at 4 ± 0.16 (treatment: DMSO) and 4.42 ± 0.42 (treatment: MLN4924 1 uM, 8 h).
With CYRENTHQTLKCSALATQYMHCVN [CHCHD3], the protein stability index turned out to be 2.17 ± 0.47 (treatment: DMSO) and 2.26 ± 0.43 (treatment: MLN4924 1 uM, 8 h).
In the case of DAILYYYQSGGRLKRPVNVPFDIF [KCNA4], the protein stability index came out at 2.58 ± 0.54 (treatment: DMSO) and 2.52 ± 0.63 (treatment: MLN4924 1 uM, 8 h).
Turning to DAKDAARDMNGKSLDGKAIKVEQA [RBMX], the protein stability index reads like this: (treatment: DMSO) 5.36 ± 0.41; (treatment: MLN4924 1 uM, 8 h) 5.37 ± 0.39.
With DCSGLVLLCLFFGIPWEAGARQIS [PCDHGA10], the protein stability index runs as follows: (treatment: DMSO) 3.45 ± 0.4; (treatment: MLN4924 1 uM, 8 h) 3.19 ± 0.2.
Take DDAGTSGGPSSPPSDPPAMSPGPL [C2CD2L]: the protein stability index by setting is: (treatment: DMSO) 5.38 ± 0.38; (treatment: MLN4924 1 uM, 8 h) 5.37 ± 0.32.
Regarding DDEEVDTHFASQEFFSANAISDQL [ADAMTSL2], the protein stability index by setting is: (treatment: DMSO) 5.27 ± 0.23; (treatment: MLN4924 1 uM, 8 h) 5.21 ± 0.15.
Turning to DDVEVLTLKKFKGDLAYRRQEYQK [C8orf76], the protein stability index is 3.78 ± 0.18 (treatment: DMSO) and 3.92 ± 0.31 (treatment: MLN4924 1 uM, 8 h).
Taken in the same sequence, the figures for DETLSSSHQKCPQLGGPEASGGLV [PLEKHN1] were 4.97 ± 0.1 and 4.8 ± 0.31.
For DFHYCDREHVCRKDQRNPPSLGRV [RBMY1A1], the protein stability index was 3.27 ± 0.27 (treatment: DMSO) and 3.8 ± 0.4 (treatment: MLN4924 1 uM, 8 h).
With DGAISAHKPLLICSCEWMAAMFGG [RHOBTB1], the protein stability index reads like this: (treatment: DMSO) 2.25 ± 0.29; (treatment: MLN4924 1 uM, 8 h) 2.3 ± 0.15.
For DHARGKSQVALKIIRNVGKYREAA [CLK3], in that order: 3.15 ± 0.18 and 3.33 ± 0.19.
DHCAQQDHGCEQLCLNTEDSFVCQ [MATN2] gave a protein stability index (treatment: DMSO) of 5 ± 0.075 and a protein stability index (treatment: MLN4924 1 uM, 8 h) of 5.08 ± 0.16.
Turning to DHKEPKEEINKNISDFGRQQLLPP [EHMT1], the protein stability index runs as follows: (treatment: DMSO) 5.1 ± 0.2; (treatment: MLN4924 1 uM, 8 h) 5.16 ± 0.21.
Regarding DHSSQSEEEVVEGEKEVEALKKSA [BNIP3L], the protein stability index (treatment: DMSO) worked out at 5.5 ± 0.36 and the protein stability index (treatment: MLN4924 1 uM, 8 h) was found to be 5.67 ± 0.26.
As to DITRYYLCLQLRDDIVSGRLPCSF [EPB41L3], the protein stability index by setting is: (treatment: DMSO) 2.97 ± 0.57; (treatment: MLN4924 1 uM, 8 h) 2.63 ± 0.5.
Taken in the same sequence, the figures for DIYYNNMEEVCGGEKPYLSPDILE [ATL3] were 3.72 ± 0.57 and 3.59 ± 0.27.
For DKFQWLAGLAPPSLFARAMQVLVT [ANKRD9], in that order: 2.56 ± 0.44 and 2.29 ± 0.15.
DKMEGNPICVQIPWDKNPEALAKW [CRY1]: the protein stability index is 4.54 ± 0.094 (treatment: DMSO) and 4.33 ± 0.24 (treatment: MLN4924 1 uM, 8 h).
Take DKRRDLAHLAAEVEGKCLQSGFEM [TRIM39]: the protein stability index is, setting by setting: (treatment: DMSO) 3.97 ± 0.18; (treatment: MLN4924 1 uM, 8 h) 4.03 ± 0.36.
Take DKVRALEEANADLEVKIHDWYQKQ [KRT15]: the protein stability index by setting is: (treatment: DMSO) 4.4 ± 0.24; (treatment: MLN4924 1 uM, 8 h) 4.3 ± 0.36.
Taken in the same sequence, the figures for DLAALKQRLEEETRKREDAEHNLV [PRPH] were 4.96 ± 0.46 and 4.6 ± 0.4.
For DLKARIDQNTVVTRQLSEENANLQ [MTUS2], the protein stability index (treatment: DMSO) was found to be 4.83 ± 0.14 and the protein stability index (treatment: MLN4924 1 uM, 8 h) was found to be 4.93 ± 0.083.
On to DLLHGPECRSSVTSDSEGAHVNTL [PHTF1], for which the protein stability index amounted to 4.33 ± 0.14 (treatment: DMSO) and 4.61 ± 0.35 (treatment: MLN4924 1 uM, 8 h).
Taken in the same sequence, the figures for DLLKFEKKFQSEKAAGSVSKSTQF [FIS1] were 3.82 ± 0.18 and 3.53 ± 0.18.
Taken in the same sequence, the figures for DLNKDKPVIPAAALAGYTGSGPIQ [ETS1] were 4.2 ± 0.13 and 4.14 ± 0.25.
In the case of DLRSGTLYSLTLYGLRGPHKADSI [TNXB], the protein stability index amounted to 2.16 ± 0.48 (treatment: DMSO) and 1.95 ± 0.27 (treatment: MLN4924 1 uM, 8 h).
Taken in the same sequence, the figures for DLSSESSIKKKFLKRKGKTDSPWI [EHMT1] were 3.42 ± 0.37 and 3.66 ± 0.26.
For the sequence DLVLHTNYTATVRGLRGPNLTSPA [TNXB], the protein stability index is, setting by setting: (treatment: DMSO) 2.79 ± 0.31; (treatment: MLN4924 1 uM, 8 h) 2.71 ± 0.32.
The sequence DLVQWTRHMEAVKAQLLEQAQGQL [SOAT2] displayed a protein stability index (treatment: DMSO) of 2.62 ± 0.56 and a protein stability index (treatment: MLN4924 1 uM, 8 h) of 2.69 ± 0.24.
On to DNIKYQPKGGQVQIVTKKIDLSHV [MAP2], for which the protein stability index reads like this: (treatment: DMSO) 3.34 ± 0.38; (treatment: MLN4924 1 uM, 8 h) 3.47 ± 0.3.
For the sequence DPHNSRRGFFFSHVGWLLVRKHPA [SCD], the protein stability index reads like this: (treatment: DMSO) 2.33 ± 0.27; (treatment: MLN4924 1 uM, 8 h) 2.3 ± 0.35.
DQGGPVEILPFLYLGSAYHASKCE [DUSP5]: the protein stability index came to 2.34 ± 0.27 (treatment: DMSO) and 2.43 ± 0.14 (treatment: MLN4924 1 uM, 8 h).
Turning to DRAAKRLSLESEGAGEGAAASPEL [TPPP], the protein stability index worked out at 5.38 ± 0.14 (treatment: DMSO) and 5.32 ± 0.37 (treatment: MLN4924 1 uM, 8 h).
As to DRERQPLLDRARGAAAQGQTQTVA [PI4K2A], the protein stability index is 5.22 ± 0.18 (treatment: DMSO) and 5.13 ± 0.28 (treatment: MLN4924 1 uM, 8 h).
Taken in the same sequence, the figures for DRFYVINYLVRLSFHNLKFDCSTA [ZNF277] were 2.98 ± 0.88 and 2.54 ± 0.43.
For the sequence DRTWTLCGTPEYLAPEVIQSKGHG [PRKX], the protein stability index is, setting by setting: (treatment: DMSO) 3.91 ± 0.48; (treatment: MLN4924 1 uM, 8 h) 3.97 ± 0.35.
As to DRYIAICNPLRYSVLMGHGVCMGL [OR10K2], the protein stability index was found to be 2.54 ± 0.27 (treatment: DMSO) and 2.43 ± 0.43 (treatment: MLN4924 1 uM, 8 h).
Take DSGFLGLRPTSVDPALRRRRRGPR [NOP53]: the protein stability index worked out at 5.15 ± 0.4 (treatment: DMSO) and 5.17 ± 0.25 (treatment: MLN4924 1 uM, 8 h).
Consider DSLHPRPPYLPLAVPEDLADRLVR [FUT8], for which the protein stability index was determined as 4.14 ± 0.13 (treatment: DMSO) and 4.06 ± 0.14 (treatment: MLN4924 1 uM, 8 h).
Consider DSRRIFVGQDNGAVMEFHVSEDFN [WDFY1], for which the protein stability index by setting is: (treatment: DMSO) 4.07 ± 0.32; (treatment: MLN4924 1 uM, 8 h) 4.22 ± 0.11.
On to DTELLGQATLPVGSPSRPLSRRQL [C2CD2L], for which the protein stability index by setting is: (treatment: DMSO) 4.74 ± 0.18; (treatment: MLN4924 1 uM, 8 h) 4.81 ± 0.15.
Regarding DTGVGKSSIVWRFVEDSFDPNINP [RAB22A], the protein stability index was determined as 2.93 ± 0.28 (treatment: DMSO) and 3.08 ± 0.29 (treatment: MLN4924 1 uM, 8 h).
Turning to DVHHGNGTQHMFEDDPSVLYVSLH [HDAC6], the protein stability index is, setting by setting: (treatment: DMSO) 2.97 ± 0.34; (treatment: MLN4924 1 uM, 8 h) 2.93 ± 0.31.
Consider DVKDWWLFGFYFCMPLVCTAIFYT [EDNRA], for which the protein stability index (treatment: DMSO) amounted to 2.76 ± 0.45 and the protein stability index (treatment: MLN4924 1 uM, 8 h) came to 3.56 ± 0.84.
In turn, DVLKYSYVRLVCKDVRAPSRPAVG [ZSWIM9] came in with a protein stability index (treatment: DMSO) of 2.25 ± 0.26 and a protein stability index (treatment: MLN4924 1 uM, 8 h) of 1.83 ± 0.22.
Taken in the same sequence, the figures for DVQNKLKESAQCVGDEFLNCKLAT [SNX8] were 3.43 ± 0.21 and 3.42 ± 0.24.
Turning to DWGPCSGSCGQGRTIRHVYCKTSD [ADAMTSL2], the protein stability index runs as follows: (treatment: DMSO) 3.43 ± 0.25; (treatment: MLN4924 1 uM, 8 h) 3.44 ± 0.33.
For DYDDGFSMKHTATARFQRNHRLIS [SMARCE1], in that order: 2.99 ± 0.1 and 3.19 ± 0.31.
As for DYFERNWEPRRDMWVRFRAFEAAR [ZSWIM9], the protein stability index is, setting by setting: (treatment: DMSO) 2.56 ± 0.12; (treatment: MLN4924 1 uM, 8 h) 2.66 ± 0.32.
